Article doi:10.1101/2020.01.13.904318 (bioRxiv, 2020)

Biological target: the molecule itself
Test: SEC

B1: purified FrlR UTRA-domain (domain or fragment)
chain: QKVENALLTVSGFTDFGVSQGKATKEKVIEQERVSAAPFCEKLNIPGNSEVFHLCRVMYLDKEPLFIDSSWIPLSRYPDFDEIYVEGSSTYQLFQERFDTRVVSDKKTIDIFAATRPQAKWLKCELGEPLFRISKIAFDQNDKPVHVSELFCRANRITLTIDNKRH
  stoichiometry N: 2
